Measurements published in paper PMC9482650, “Quantitative fragmentomics allow affinity mapping of interactomes” (Nature Communications, 2022).

Legend:
Experiment in all cases: holdup assay
Design in all cases: key: below the threshold = too weak to quantify, mostly under pKd 3.1 to 4
APBA3_1, O96018 = target: T1, APBA3_1, O96018
T1 sequence (O96018 389-490, limits assumed, looked up): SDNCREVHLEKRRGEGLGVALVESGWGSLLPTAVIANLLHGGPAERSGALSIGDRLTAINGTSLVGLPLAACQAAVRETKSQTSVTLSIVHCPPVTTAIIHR

ARHGEF12, Q9NZN5-2 = target: ARHGEF12, Q9NZN5-2
GORASP2, Q9H8Y8 = target: GORASP2, Q9H8Y8
GRASP, Q7Z6J2 = target: GRASP, Q7Z6J2
GRIP1_4, Q9Y3R0 = target: T2, GRIP1_4, Q9Y3R0
T2 sequence (Q9Y3R0 467-571, limits assumed, looked up): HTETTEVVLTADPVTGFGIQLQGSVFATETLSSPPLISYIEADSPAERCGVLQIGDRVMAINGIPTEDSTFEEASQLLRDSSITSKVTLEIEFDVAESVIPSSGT

HTRA2, O43464 = target: HTRA2, O43464
IL16_3, Q14005 = target: IL16_3, Q14005
IL16_4, Q14005 = target: IL16_4, Q14005
Inadl_8, Q8NI35 = target: Inadl_8, Q8NI35
LIMK2, P53671 = target: LIMK2, P53671
LIN7A, O14910 = target: T3, LIN7A, O14910
T3 sequence (O14910 103-200, limits assumed, looked up): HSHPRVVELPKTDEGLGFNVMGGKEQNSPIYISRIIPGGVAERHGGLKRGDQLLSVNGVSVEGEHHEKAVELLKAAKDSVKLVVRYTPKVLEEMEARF

LNX2_2, Q8N448 = target: T4, LNX2_2, Q8N448
T4 sequence (Q8N448 334-432, limits assumed, looked up): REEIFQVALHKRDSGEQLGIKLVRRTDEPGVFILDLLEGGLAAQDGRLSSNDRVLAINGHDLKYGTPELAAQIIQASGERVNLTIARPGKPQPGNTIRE

LNX2_3, Q8N448 = target: T5, LNX2_3, Q8N448
T5 sequence (Q8N448 463-564, limits assumed, looked up): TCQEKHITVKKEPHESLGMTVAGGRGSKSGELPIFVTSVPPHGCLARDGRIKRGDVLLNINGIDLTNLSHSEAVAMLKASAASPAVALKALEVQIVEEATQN

LRRC7, Q96NW7 = target: T6, LRRC7, Q96NW7
T6 sequence (Q96NW7 1440-1537, limits assumed, looked up): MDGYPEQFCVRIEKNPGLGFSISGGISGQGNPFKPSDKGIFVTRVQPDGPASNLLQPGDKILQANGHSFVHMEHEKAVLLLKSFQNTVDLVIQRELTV

MAGI2_5, Q86UL8 = target: MAGI2_5, Q86UL8
MPDZ_12, O75970 = target: T7, MPDZ_12, O75970
T7 sequence (O75970 1857-1958, limits assumed, looked up): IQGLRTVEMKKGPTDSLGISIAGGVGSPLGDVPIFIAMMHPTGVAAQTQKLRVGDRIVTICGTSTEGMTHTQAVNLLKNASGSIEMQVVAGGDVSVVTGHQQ

NHERF3_3, Q5T2W1 = target: T8, NHERF3_3, Q5T2W1
T8 sequence (Q5T2W1 238-333, limits assumed, looked up): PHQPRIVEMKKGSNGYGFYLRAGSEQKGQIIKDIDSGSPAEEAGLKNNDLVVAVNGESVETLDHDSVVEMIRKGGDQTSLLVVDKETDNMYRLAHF

PCLO, Q9Y6V0 = target: T9, PCLO, Q9Y6V0
T9 sequence (Q9Y6V0 4491-4600, limits assumed, looked up): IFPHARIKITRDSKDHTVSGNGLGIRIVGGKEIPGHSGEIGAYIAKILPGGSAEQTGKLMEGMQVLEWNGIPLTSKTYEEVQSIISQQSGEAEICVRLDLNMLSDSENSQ

PDZRN3_1, Q9UPQ7 = target: T10, PDZRN3_1, Q9UPQ7
T10 sequence (Q9UPQ7 244-349, limits assumed, looked up): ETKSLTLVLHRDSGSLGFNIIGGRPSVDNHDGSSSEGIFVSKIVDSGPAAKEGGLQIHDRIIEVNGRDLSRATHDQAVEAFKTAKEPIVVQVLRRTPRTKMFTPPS

PDZRN4_1, Q6ZMN7 = target: PDZRN4_1, Q6ZMN7
SNTA1, Q13424 = target: T11, SNTA1, Q13424
T11 sequence (Q13424 82-180, limits assumed, looked up): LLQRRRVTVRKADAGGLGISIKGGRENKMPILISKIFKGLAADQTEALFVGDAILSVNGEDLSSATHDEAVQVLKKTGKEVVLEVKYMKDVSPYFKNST

SNTB1, Q13884 = target: T12, SNTB1, Q13884
T12 sequence (Q13884 107-205, limits assumed, looked up): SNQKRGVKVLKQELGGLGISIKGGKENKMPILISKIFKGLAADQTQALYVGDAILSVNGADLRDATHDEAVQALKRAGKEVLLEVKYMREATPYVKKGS

SYNJ2BP, P57105 = target: T13, SYNJ2BP, P57105
T13 sequence (P57105 8-110, limits assumed, looked up): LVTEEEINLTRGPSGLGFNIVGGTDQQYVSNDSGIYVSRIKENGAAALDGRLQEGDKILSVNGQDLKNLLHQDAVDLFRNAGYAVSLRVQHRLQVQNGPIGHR

TJP1_3, Q07157 = target: TJP1_3, Q07157
[1] = plain residues with an end cap or a label only (N-terminal biotin on a linker: ttds)
[2] = plain residues with an end cap or a label only (N-terminal biotin on a linker: ahx)

Sequence of PDZRN4_1, Q6ZMN7 (Q6ZMN7 213-318): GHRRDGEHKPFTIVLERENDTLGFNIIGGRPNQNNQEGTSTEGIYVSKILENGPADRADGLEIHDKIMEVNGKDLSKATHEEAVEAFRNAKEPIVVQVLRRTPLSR
Sequence of LIMK2, P53671 (P53671 143-248): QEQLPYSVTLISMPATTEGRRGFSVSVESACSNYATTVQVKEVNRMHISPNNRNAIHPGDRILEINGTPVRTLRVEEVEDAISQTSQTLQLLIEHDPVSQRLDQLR
Sequence of GRASP, Q7Z6J2 (Q7Z6J2 96-193): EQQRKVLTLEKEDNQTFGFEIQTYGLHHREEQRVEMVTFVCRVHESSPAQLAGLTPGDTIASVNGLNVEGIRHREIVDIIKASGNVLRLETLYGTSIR
Sequence of MAGI2_5, Q86UL8 (Q86UL8 915-1017): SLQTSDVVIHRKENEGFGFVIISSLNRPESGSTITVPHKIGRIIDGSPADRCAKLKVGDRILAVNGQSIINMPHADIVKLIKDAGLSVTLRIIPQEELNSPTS
Sequence of HTRA2, O43464 (O43464 355-458): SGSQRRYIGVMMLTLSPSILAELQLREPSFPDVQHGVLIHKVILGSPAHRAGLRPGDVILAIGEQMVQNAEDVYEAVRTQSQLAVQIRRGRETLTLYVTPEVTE
Sequence of IL16_3, Q14005 (Q14005 1107-1207): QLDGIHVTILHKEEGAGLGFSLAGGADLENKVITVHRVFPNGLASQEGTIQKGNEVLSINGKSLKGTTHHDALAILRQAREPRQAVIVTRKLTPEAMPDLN
Sequence of TJP1_3, Q07157 (Q07157 416-512): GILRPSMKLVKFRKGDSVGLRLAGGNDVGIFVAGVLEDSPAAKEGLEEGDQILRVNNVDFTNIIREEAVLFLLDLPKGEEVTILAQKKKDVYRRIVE
Sequence of ARHGEF12, Q9NZN5-2 (Q9NZN5 other isoform, or with tags, fused parts or gaps): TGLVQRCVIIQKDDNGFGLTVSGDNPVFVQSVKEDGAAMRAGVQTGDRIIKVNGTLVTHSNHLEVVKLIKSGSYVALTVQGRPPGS
Sequence of IL16_4, Q14005 (Q14005 1229-1329): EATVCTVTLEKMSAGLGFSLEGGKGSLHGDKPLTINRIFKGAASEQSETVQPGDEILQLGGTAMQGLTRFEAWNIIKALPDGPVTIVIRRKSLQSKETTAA
Sequence of Inadl_8, Q8NI35 (Q8NI35 1425-1530): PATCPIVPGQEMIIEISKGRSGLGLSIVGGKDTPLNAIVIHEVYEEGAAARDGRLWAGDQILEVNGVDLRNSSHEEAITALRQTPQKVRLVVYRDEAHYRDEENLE

**Q.** What does the source list for SRPQRTQTQV [HPV67-E6, A4U7F2]?
**A.** pKd (APBA3_1, O96018; [1]): below the threshold; pKd (ARHGEF12, Q9NZN5-2; [1]): 4; pKd (GORASP2, Q9H8Y8; [1]): below the threshold; pKd (GRASP, Q7Z6J2; [1]): below the threshold; pKd (GRIP1_4, Q9Y3R0; [1]): below the threshold; pKd (HTRA2, O43464; [1]): below the threshold; pKd (IL16_3, Q14005; [1]): below the threshold; pKd (IL16_4, Q14005; [1]): below the threshold; pKd (Inadl_8, Q8NI35; [1]): below the threshold; pKd (LIMK2, P53671; [1]): below the threshold; pKd (LIN7A, O14910; [1]): below the threshold; pKd (LNX2_2, Q8N448; [1]): 3.6; pKd (LNX2_3, Q8N448; [1]): below the threshold; pKd (LRRC7, Q96NW7; [1]): below the threshold; pKd (MAGI2_5, Q86UL8; [1]): 3.94; pKd (MPDZ_12, O75970; [1]): below the threshold; pKd (NHERF3_3, Q5T2W1; [1]): below the threshold; pKd (PCLO, Q9Y6V0; [1]): below the threshold; pKd (PDZRN3_1, Q9UPQ7; [1]): 3.76; pKd (PDZRN4_1, Q6ZMN7; [1]): 3.82; pKd (SNTA1, Q13424; [1]): 3.94; pKd (SNTB1, Q13884; [1]): below the threshold; pKd (SYNJ2BP, P57105; [1]): 4.4; pKd (TJP1_3, Q07157; [1]): below the threshold

**Q.** What does the source list for HTHSYIETHV [CNKSR2, Q8WXI2]?
**A.** pKd (APBA3_1, O96018; [2]): below the threshold; pKd (ARHGEF12, Q9NZN5-2; [2]): 3.88; pKd (GORASP2, Q9H8Y8; [2]): below the threshold; pKd (GRASP, Q7Z6J2; [2]): 3.47; pKd (GRIP1_4, Q9Y3R0; [2]): below the threshold; pKd (HTRA2, O43464; [2]): below the threshold; pKd (IL16_3, Q14005; [2]): below the threshold; pKd (IL16_4, Q14005; [2]): below the threshold; pKd (Inadl_8, Q8NI35; [2]): below the threshold; pKd (LIMK2, P53671; [2]): below the threshold; pKd (LIN7A, O14910; [2]): below the threshold; pKd (LNX2_2, Q8N448; [2]): 3.99; pKd (LNX2_3, Q8N448; [2]): below the threshold; pKd (LRRC7, Q96NW7; [2]): 4.75; pKd (MAGI2_5, Q86UL8; [2]): 4.83; pKd (MPDZ_12, O75970; [2]): below the threshold; pKd (NHERF3_3, Q5T2W1; [2]): below the threshold; pKd (PCLO, Q9Y6V0; [2]): below the threshold; pKd (PDZRN3_1, Q9UPQ7; [2]): 3.8; pKd (PDZRN4_1, Q6ZMN7; [2]): below the threshold; pKd (SNTA1, Q13424; [2]): 4.93; pKd (SNTB1, Q13884; [2]): 4.6; pKd (SYNJ2BP, P57105; [2]): 5.02; pKd (TJP1_3, Q07157; [2]): below the threshold

**Q.** How did the pKd (APBA3_1, O96018; [1]) turn out when SVWLRKETRV [CYSLTR2, Q9NS75] was run?
**A.** below the threshold

**Q.** And the pKd (ARHGEF12, Q9NZN5-2; [1])?
**A.** 4.23

**Q.** What about the pKd (GORASP2, Q9H8Y8; [1]) of the same binder?
**A.** 4.01

**Q.** What about the pKd (GRASP, Q7Z6J2; [1]) of the same binder?
**A.** below the threshold

**Q.** And the pKd (GRIP1_4, Q9Y3R0; [1])?
**A.** below the threshold

**Q.** What about the pKd (HTRA2, O43464; [1]) of the same binder?
**A.** 3.5

**Q.** What about the pKd (IL16_3, Q14005; [1]) of the same binder?
**A.** below the threshold

**Q.** What about the pKd (IL16_4, Q14005; [1]) of the same binder?
**A.** below the threshold

**Q.** What about the pKd (Inadl_8, Q8NI35; [1]) of the same binder?
**A.** 4.55

**Q.** And the pKd (LIMK2, P53671; [1])?
**A.** below the threshold

**Q.** And the pKd (LIN7A, O14910; [1])?
**A.** 4.17

**Q.** And the pKd (LNX2_2, Q8N448; [1])?
**A.** 3.77

**Q.** And the pKd (LNX2_3, Q8N448; [1])?
**A.** below the threshold

**Q.** And the pKd (LRRC7, Q96NW7; [1])?
**A.** 3.65

**Q.** And the pKd (MAGI2_5, Q86UL8; [1])?
**A.** 3.93

**Q.** What about the pKd (MPDZ_12, O75970; [1]) of the same binder?
**A.** below the threshold

**Q.** What about the pKd (NHERF3_3, Q5T2W1; [1]) of the same binder?
**A.** 3.52

**Q.** And the pKd (PCLO, Q9Y6V0; [1])?
**A.** below the threshold

**Q.** What about the pKd (PDZRN3_1, Q9UPQ7; [1]) of the same binder?
**A.** 5.1

**Q.** And the pKd (PDZRN4_1, Q6ZMN7; [1])?
**A.** 4.76

**Q.** And the pKd (SNTA1, Q13424; [1])?
**A.** 5.41

**Q.** And the pKd (SNTB1, Q13884; [1])?
**A.** 5.5

**Q.** And the pKd (SYNJ2BP, P57105; [1])?
**A.** 5.38

**Q.** And the pKd (TJP1_3, Q07157; [1])?
**A.** below the threshold
